From the supplement of paper PMC5998384

Tests used:
HeLa Kyoto [1] = assay: solubility in G1/S (NP-40 vs SDS abundance) (log2 ratio); higher = more soluble; settings: cell cycle stage: G1/S
HeLa Kyoto [2] = assay: melting temperature (median over replicates), in situ; higher = more thermally stable
HeLa Kyoto [3] = assay: solubility change mitosis vs G1/S (difference of NP-40 vs SDS log2 ratios) (log2 ratio difference); higher = more soluble in mitosis
HeLa Kyoto [4] = assay: thermal stability score vs G1/S (z-score of summed log2 fold changes over temperatures); higher = more thermally stable than in G1/S
[5] = cell cycle stage: early G1 (4.5 h after nocodazole release)
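For melting temperature (median over replicates), in situ in this document: HeLa Kyoto cells synchronized by double thymidine or nocodazole block, proteins quantified by TMT10plex mass spectrometry, three independent biological replicates.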
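For solubility change mitosis vs G1/S (difference of NP-40 vs SDS log2 ratios) in this document: synchronized HeLa Kyoto cells (double thymidine block for G1/S, nocodazole release for mitosis), protein amounts in NP-40 versus SDS lysates quantified by mass spectrometry, three biological replicates.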
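For solubility in G1/S (NP-40 vs SDS abundance) in this document: HeLa Kyoto cells arrested at G1/S by double thymidine block, proteins quantified by TMT10plex mass spectrometry in mild NP-40 versus SDS extracts, three biological replicates.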
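For thermal stability score vs G1/S (z-score of summed log2 fold changes over temperatures) in this document: synchronized HeLa Kyoto cells, proteins quantified by TMT10plex mass spectrometry, three biological replicates, mitosis taken 0.5 h after nocodazole release, G1/S directly after double thymidine block.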

Substance	solubility in G1/S (log2) (HeLa Kyoto [1])	melting temperature (HeLa Kyoto [2]; cell cycle stage: G1/S)	melting temperature (HeLa Kyoto [2]; cell cycle stage: mitosis)	solubility change mitosis (log2) (HeLa Kyoto [3])	thermal stability score (HeLa Kyoto [4]; [5])	thermal stability score (HeLa Kyoto [4]; cell cycle stage: mitosis)
MSAPAGSSHPAASARIPPKFGGAAVSGAAAPAGPGAGPAPHQQNGPAQNQMQVPSGYGLHHQNYIAPSGHYSQGPGKMTSLPLDTQCGDYYSALYTVPTQNVTPNTVNQQPGAQQLYSRGPPAPHIVGSTLGSFQGAASSASHLHTSASQPYSSFVNHYNSPAMYSASSSVASQGFPSTCGHYAMSTVSNAAYPSVSYPSLPAGDTYGQMFTSQNAPTVRPVKDNSFSGQNTAISHPSPLPPLPSQQHHQQQSLSGYSTLTWSSPGLPSTQDNLIRNHTGSLAVANNNPTITVADSLSCPVMQNVQPPKSSPVVSTVLSGSSGSSSTRTPPTANHPVEPVTSVTQPSELLQQKGVQYGEYVNNQASSAPTPLSSTSDDEEEEEEDEEAGVDSSSTTSSASPMPNSYDALEGGSYPDMLSSSASSPAPDPAPEPDPASAPAPASAPAPVVPQPSKMAKPFGYGYPTLQPGYQNATAPLISGVQPSNPVYSGFQQYPQQYPGVNQLSSSIGGLSLQSSPQPESLRPVNLTQERNILPMTPVWAPVPNLNADLKKLNCSPDSFRCTLTNIPQTQALLNKAKLPLGLLLHPFRDLTQLPVITSNTIVRCRSCRTYINPFVSFIDQRRWKCNLCYRVNDVPEEFMYNPLTRSYGEPHKRPEVQNSTVEFIASSDYMLRPPQPAVYLFVLDVSHNAVEAGYLTILCQSLLENLDKLPGDSRTRIGFMTFDSTIHFYNLQEGLSQPQMLIVSDIDDVFLPTPDSLLVNLYESKELIKDLLNALPNMFTNTRETHSALGPALQAAFKLMSPTGGRVSVFQTQLPSLGAGLLQSREDPNQRSSTKVVQHLGPATDFYKKLALDCSGQQTAVDLFLLSSQYSDLASLACMSKYSAGCIYYYPSFHYTHNPSQAEKLQKDLKRYLTRKIGFEAVMRIRCTKGLSMHTFHGNFFVRSTDLLSLANINPDAGFAVQLSIEESLTDTSLVCFQTALLYTSSKGERRIRVHTLCLPVVSSLADVYAGVDVQAAICLLANMAVDRSVSSSLSDARDALVNAVVDSLSAYGSTVSNLQHSALMAPSSLKLFPLYVLALLKQKAFRTGTSTRLDDRVYAMCQIKSQPLVHLMKMIHPNLYRIDRLTDEGAVHVNDRIVPQPPLQKLSAEKLTREGAFLMDCGSVFYIWVGKGCDNNFIEDVLGYTNFASIPQKMTHLPELDTLSSERARSFITWLRDSRPLSPILHIVKDESPAKAEFFQHLIEDRTEAAFSYYEFLLHVQQQICK [SEC24B]	-0.132	48.8 °C	49.5 °C	-0.119	1.03	1.85
MVSVINTVDTSHEDMIHDAQMDYYGTRLATCSSDRSVKIFDVRNGGQILIADLRGHEGPVWQVAWAHPMYGNILASCSYDRKVIIWREENGTWEKSHEHAGHDSSVNSVCWAPHDYGLILACGSSDGAISLLTYTGEGQWEVKKINNAHTIGCNAVSWAPAVVPGSLIDHPSGQKPNYIKRFASGGCDNLIKLWKEEEDGQWKEEQKLEAHSDWVRDVAWAPSIGLPTSTIASCSQDGRVFIWTCDDASSNTWSPKLLHKFNDVVWHVSWSITANILAVSGGDNKVTLWKESVDGQWVCISDVNKGQGSVSASVTEGQQNEQ [SEC13]	-0.204	50.5 °C	50.4 °C	-0.09	-0.768	-0.265
MAQQQMTSSQKALMLELKSLQEEPVEGFRITLVDESDLYNWEVAIFGPPNTLYEGGYFKAHIKFPIDYPYSPPTFRFLTKMWHPNIYENGDVCISILHPPVDDPQSGELPSERWNPTQNVRTILLSVISLLNEPNTFSPANVDASVMFRKWRDSKGKDKEYAEIIRKQVSATKAEAEKDGVKVPTTLAEYCIKTKVPSNDNSSDLLYDDLYDDDIDDEDEEEEDADCYDDDDSGNEES [UBE2R2]	0.302	51.9 °C	52.9 °C	0.134	-2.34	-0.967
MDWGTELWDQFEVLERHTQWGLDLLDRYVKFVKERTEVEQAYAKQLRSLVKKYLPKRPAKDDPESKFSQQQSFVQILQEVNDFAGQRELVAENLSVRVCLELTKYSQEMKQERKMHFQEGRRAQQQLENGFKQLENSKRKFERDCREAEKAAQTAERLDQDINATKADVEKAKQQAHLRSHMAEESKNEYAAQLQRFNRDQAHFYFSQMPQIFDKLQDMDERRATRLGAGYGLLSEAELEVVPIIAKCLEGMKVAANAVDPKNDSHVLIELHKSGFARPGDVEFEDFSQPMNRAPSDSSLGTPSDGRPELRGPGRSRTKRWPFGKKNKPRPPPLSPLGGPVPSALPNGPPSPRSGRDPLAILSEISKSVKPRLASFRSLRGSRGTVVTEDFSHLPPEQQRKRLQQQLEERSRELQKEVDQREALKKMKDVYEKTPQMGDPASLEPQIAETLSNIERLKLEVQKYEAWLAEAESRVLSNRGDSLSRHARPPDPPASAPPDSSSNSASQDTKESSEEPPSEESQDTPIYTEFDEDFEEEPTSPIGHCVAIYHFEGSSEGTISMAEGEDLSLMEEDKGDGWTRVRRKEGGEGYVPTSYLRVTLN [TRIP10]	0.397	50.7 °C	49.9 °C	-0.00359	-0.196	-0.283
MKLGRAVLGLLLLAPSVVQAVEPISLGLALAGVLTGYIYPRLYCLFAECCGQKRSLSREALQKDLDDNLFGQHLAKKIILNAVFGFINNPKPKKPLTLSLHGWTGTGKNFVSKIIAENIYEGGLNSDYVHLFVATLHFPHASNITLYKDQLQLWIRGNVSACARSIFIFDEMDKMHAGLIDAIKPFLDYYDLVDGVSYQKAMFIFLSNAGAERITDVALDFWRSGKQREDIKLKDIEHALSVSVFNNKNSGFWHSSLIDRNLIDYFVPFLPLEYKHLKMCIRVEMQSRGYEIDEDIVSRVAEEMTFFPKEERVFSDKGCKTVFTKLDYYYDD [TOR1A]	0.000474	53.7 °C	53.5 °C	-0.0946	3.37	4.06
MHQQKRQPELVEGNLPVFVFPTELIFYADDQSTHKQVLTLYNPYEFALKFKVLCTTPNKYVVVDAAGAVKPQCCVDIVIRHRDVRSCHYGVIDKFRLQVSEQSQRKALGRKEVVATLLPSAKEQQKEEEEKRLKEHLTESLFFEQSFQPENRAVSSGPSLLTVFLGVVCIAALMLPTLGDVESLVPLYLHLSVNQKLVAAYILGLITMAILRT [MOSPD1]	0.0717	54.2 °C	54.9 °C	0.352	-1.29	-2.15
MDFSRNLYDIGEQLDSEDLASLKFLSLDYIPQRKQEPIKDALMLFQRLQEKRMLEESNLSFLKELLFRINRLDLLITYLNTRKEEMERELQTPGRAQISAYRVMLYQISEEVSRSELRSFKFLLQEEISKCKLDDDMNLLDIFIEMEKRVILGEGKLDILKRVCAQINKSLLKIINDYEEFSKERSSSLEGSPDEFSNGEELCGVMTISDSPREQDSESQTLDKVYQMKSKPRGYCLIINNHNFAKAREKVPKLHSIRDRNGTHLDAGALTTTFEELHFEIKPHDDCTVEQIYEILKIYQLMDHSNMDCFICCILSHGDKGIIYGTDGQEAPIYELTSQFTGLKCPSLAGKPKVFFIQACQGDNYQKGIPVETDSEEQPYLEMDLSSPQTRYIPDEADFLLGMATVNNCVSYRNPAEGTWYIQSLCQSLRERCPRGDDILTILTEVNYEVSNKDDKKNMGKQMPQPTFTLRKKLVFPSD [CASP8]	0.075	48.5 °C	48.7 °C	-0.167	0.959	2
MKKKTVCTLNMGDKKYEDMEGEENGDNTISTGLLYSEADRCPICLNCLLEKEVGFPESCNHVFCMTCILKWAETLASCPIDRKPFQAVFKFSALEGYVKVQVKKQLRETKDKKNENSFEKQVSCHENSKSCIRRKAIVREDLLSAKVCDLKWIHRNSLYSETGGKKNAAIKINKPQRSNWSTNQCFRNFFSNMFSSVSHSGESSFTYRAYCTEFIEASEISALIRQKRHELELSWFPDTLPGIGRIGFIPWNVETEVLPLISSVLPRTIFPTSTISFEHFGTSCKGYALAHTQEGEEKKQTSGTSNTRGSRRKPAMTTPTRRSTRNTRAETASQSQRSPISDNSGCDAPGNSNPSLSVPSSAESEKQTRQAPKRKSVRRGRKPPLLKKKLRSSVAAPEKSSSNDSVDEETAESDTSPVLEKEHQPDVDSSNICTVQTHVENQSANCLKSCNEQIEESEKHTANYDTEERVGSSSSESCAQDLPVLVGEEGEVKKLENTGIEANVLCLESEISENILEKGGDPLEKQDQISGLSQSEVKTDVCTVHLPNDFPTCLTSESKVYQPVSCPLSDLSENVESVVNEEKITESSLVEITEHKDFTLKTEELIESPKLESSEGEIIQTVDRQSVKSPEVQLLGHVETEDVEIIATCDTFGNEDFNNIQDSENNLLKNNLLNTKLEKSLEEKNESLTEHPRSTELPKTHIEQIQKHFSEDNNEMIPMECDSFCSDQNESEVEPSVNADLKQMNENSVTHCSENNMPSSDLADEKVETVSQPSESPKDTIDKTKKPRTRRSRFHSPSTTWSPNKDTPQEKKRPQSPSPRRETGKESRKSQSPSPKNESARGRKKSRSQSPKKDIARERRQSQSRSPKRDTTRESRRSESLSPRRETSRENKRSQPRVKDSSPGEKSRSQSRERESDRDGQRRERERRTRKWSRSRSHSRSPSRCRTKSKSSSFGRIDRDSYSPRWKGRWANDGWRCPRGNDRYRKNDPEKQNENTRKEKNDIHLDADDPNSADKHRNDCPNWITEKINSGPDPRTRNPEKLKESHWEENRNENSGNSWNKNFGSGWVSNRGRGRGNRGRGTYRSSFAYKDQNENRWQNRKPLSGNSNSSGSESFKFVEQQSYKRKSEQEFSFDTPADRSGWTSASSWAVRKTLPADVQNYYSRRGRNSSGPQSGWMKQEEETSGQDSSLKDQTNQQVDGSQLPINMMQPQMNVMQQQMNAQHQPMNIFPYPVGVHAPLMNIQRNPFNIHPQLPLHLHTGVPLMQVATPTSVSQGLPPPPPPPPPSQQVNYIASQPDGKQLQGIPSSSHVSNNMSTPVLPAPTAAPGNTGMVQGPSSGNTSSSSHSKASNAAVKLAESKVSVAVEASADSSKTDKKLQIQEKAAQEVKLAIKPFYQNKDITKEEYKEIVRKAVDKVCHSKSGEVNSTKVANLVKAYVDKYKYSRKGSQKKTLEEPVSTEKNIG [SCAF11]	-0.87	52.9 °C	53.5 °C	0.664	-1.41	2.84
MAALAPLPPLPAQFKSIQHHLRTAQEHDKRDPVVAYYCRLYAMQTGMKIDSKTPECRKFLSKLMDQLEALKKQLGDNEAITQEIVGCAHLENYALKMFLYADNEDRAGRFHKNMIKSFYTASLLIDVITVFGELTDENVKHRKYARWKATYIHNCLKNGETPQAGPVGIEEDNDIEENEDAGAASLPTQPTQPSSSSTYDPSNMPSGNYTGIQIPPGAHAPANTPAEVPHSTGVASNTIQPTPQTIPAIDPALFNTISQGDVRLTPEDFARAQKYCKYAGSALQYEDVSTAVQNLQKALKLLTTGRE [VTA1]	0.0799	50.9 °C	50.4 °C	0.325	-1.99	-2.34
MAADISESSGADCKGDPRNSAKLDADYPLRVLYCGVCSLPTEYCEYMPDVAKCRQWLEKNFPNEFAKLTVENSPKQEAGISEGQGTAGEEEEKKKQKRGGRGQIKQKKKTVPQKVTIAKIPRAKKKYVTRVCGLATFEIDLKEAQRFFAQKFSCGASVTGEDEIIIQGDFTDDIIDVIQEKWPEVDDDSIEDLGEVKK [DENR]	0.481	56.9 °C	58.6 °C	0.142	0.263	0.467
VWA8	-0.224	50.3 °C	50.4 °C	-0.0997	1.66	1.12
MSSEEGKLFVGGLNFNTDEQALEDHFSSFGPISEVVVVKDRETQRSRGFGFITFTNPEHASVAMRAMNGESLDGRQIRVDHAGKSARGTRGGGFGAHGRGRSYSRGGGDQGYGSGRYYDSRPGGYGYGYGRSRDYNGRNQGGYDRYSGGNYRDNYDN [RBM3]	0.11	54.2 °C	52.7 °C	0.436	-2.01	-4.74
